Five molecules from PMC5855135 (Chemical Science, 2017) can be followed below.

In data set [1] the target is T1, CcpA (SaCcpA) (Staphylococcus aureus Newman) (UniProt P99175).
T1 sequence: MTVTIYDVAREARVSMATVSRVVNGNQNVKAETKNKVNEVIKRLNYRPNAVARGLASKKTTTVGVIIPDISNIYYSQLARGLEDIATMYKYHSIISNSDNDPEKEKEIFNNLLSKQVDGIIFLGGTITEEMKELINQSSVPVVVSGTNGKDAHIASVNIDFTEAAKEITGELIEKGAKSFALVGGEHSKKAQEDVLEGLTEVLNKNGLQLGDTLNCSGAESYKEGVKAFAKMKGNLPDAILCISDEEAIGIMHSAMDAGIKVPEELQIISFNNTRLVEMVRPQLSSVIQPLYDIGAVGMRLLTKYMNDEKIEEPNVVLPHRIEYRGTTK
As to the kind of experiment: EMSA. Particulars: BLI: 25 mM Tris-HNO3, 80 mM NaNO3, 35 mM KNO3, 10 mM Mg(NO3)2, 0.1% Triton X-100, 10% glycerol, 0.1% BSA, 0.01% Tween 20, pH 7.5, 37 C; EMSA: 35 nM DNA in ….

Data set [2] deals with CcpA (SaCcpA) (Staphylococcus aureus Newman). As to the kind of experiment: BLI. Conditions: no Ag+; 10 mM Mg2+; BLI: 25 mM Tris-HNO3, 80 mM NaNO3, 35 mM KNO3, 10 mM Mg(NO3)2, 0.1% Triton X-100, 10% glycerol, 0.1% BSA, 0.01% Tween 20, pH 7.5, 37 C; EMSA: 35 nM DNA in ….
Data set [3] concerns CcpA2CS (Staphylococcus aureus Newman). As to the kind of experiment: BLI. Particulars: BLI: 25 mM Tris-HNO3, 80 mM NaNO3, 35 mM KNO3, 10 mM Mg(NO3)2, 0.1% Triton X-100, 10% glycerol, 0.1% BSA, 0.01% Tween 20, pH 7.5, 37 C; EMSA: 35 nM DNA in ….
Data set [4] has the same test system. In words: BLI. Particulars: BLI: 25 mM Tris-HNO3, 80 mM NaNO3, 35 mM KNO3, 10 mM Mg(NO3)2, 0.1% Triton X-100, 10% glycerol, 0.1% BSA, 0.01% Tween 20, pH 7.5, 37 C; EMSA: 35 nM DNA in …. This is another data set of the same source.
Data set [5] deals with the molecule itself. As to the kind of experiment: SEC; size-exclusion chromatography of purified CcpA pre-incubated with Ag+ (0.6, 1.2, 2.0 molar equivalents; CcpA^2CS with 2.0).
Data set [6] concerns the molecule itself. In words: SEC; size-exclusion chromatography of purified CcpA without Ag+.

For the molecule “ACTCGTACCACCAGTCACTATAAAATGTTGTCCTTTCATCAATTAACCTTCCTTTTCAATTATATAGAATGCAATTTATCAACTTTACATAATTGAGACAAGTTGATTATCTTTCCTAATATATATACAATAATAAGAAAATATAACATACAAATCAAAAACTAAAGGGATGTGACGTTAATGAAACTCG (double strand) [proC probe]”, the binding result in data set [1] was “no binding”.
As to biotinylated pckA promoter probe, the Kd in data set [2] was 16.1 nM; in data set [3], 15.1 nM; in data set [4], 20.7 nM.

B1: Staphylococcus aureus catabolite control protein A (CcpA), wild type (natural protein, UniProt Q5HF38 1-329, looked up)
chain: MTVTIYDVAREARVSMATVSRVVNGNQNVKAETKNKVNEVIKRLNYRPNAVARGLASKKTTTVGVIIPDISNIYYSQLARGLEDIATMYKYHSIISNSDNDPEKEKEIFNNLLSKQVDGIIFLGGTITEEMKELINQSSVPVVVSGTNGKDAHIASVNIDFTEAAKEITGELIEKGAKSFALVGGEHSKKAQEDVLEGLTEVLNKNGLQLGDTLNCSGAESYKEGVKAFAKMKGNLPDAILCISDEEAIGIMHSAMDAGIKVPEELQIISFNNTRLVEMVRPQLSSVIQPLYDIGAVGMRLLTKYMNDEKIEEPNVVLPHRIEYRGTTK
notes: catabolite control protein A (CcpA) of Staphylococcus aureus; has two cysteines, Cys216 and Cys242; Dimer by SEC without Ag+; written as the protomer for the rows of self-association; Host, tags and limits are in the ESI; also called SaCcpA; WT CcpA
In the case of B1, the “stoichiometry N” value stood at 4 in data set [5] and 2 in data set [6].

B2: Staphylococcus aureus CcpA C216S mutant (natural protein)
chain: MTVTIYDVAREARVSMATVSRVVNGNQNVKAETKNKVNEVIKRLNYRPNAVARGLASKKTTTVGVIIPDISNIYYSQLARGLEDIATMYKYHSIISNSDNDPEKEKEIFNNLLSKQVDGIIFLGGTITEEMKELINQSSVPVVVSGTNGKDAHIASVNIDFTEAAKEITGELIEKGAKSFALVGGEHSKKAQEDVLEGLTEVLNKNGLQLGDTLNSSGAESYKEGVKAFAKMKGNLPDAILCISDEEAIGIMHSAMDAGIKVPEELQIISFNNTRLVEMVRPQLSSVIQPLYDIGAVGMRLLTKYMNDEKIEEPNVVLPHRIEYRGTTK
For B2, the “stoichiometry N” value in data set [5] turned out to be 4.

B3: Staphylococcus aureus CcpA C242S mutant (natural protein)
chain: MTVTIYDVAREARVSMATVSRVVNGNQNVKAETKNKVNEVIKRLNYRPNAVARGLASKKTTTVGVIIPDISNIYYSQLARGLEDIATMYKYHSIISNSDNDPEKEKEIFNNLLSKQVDGIIFLGGTITEEMKELINQSSVPVVVSGTNGKDAHIASVNIDFTEAAKEITGELIEKGAKSFALVGGEHSKKAQEDVLEGLTEVLNKNGLQLGDTLNCSGAESYKEGVKAFAKMKGNLPDAILSISDEEAIGIMHSAMDAGIKVPEELQIISFNNTRLVEMVRPQLSSVIQPLYDIGAVGMRLLTKYMNDEKIEEPNVVLPHRIEYRGTTK
As for B3, the “stoichiometry N” value in data set [5] came to 4.
